Publication PMC9629515
Like-named read-outs stand apart in the source and are kept apart here.

Columns and labels:
[1] = target: cytosolic domain of Aeromonas hydrophila AscV (AscVC; residues 375–721) (Aeromonas hydrophila AH3)
[2] = target: cytosolic domain of Photorhabdus luminescens LscV (LscVC; residues 357–705) (Photorhabdus luminescens (Table 1: Photorhabdus laumondii TT01)); test: crystal structure
[3] = target: cytosolic domain of Photorhabdus luminescens LscV (LscVC; residues 357–705) (Photorhabdus luminescens (Table 1: Photorhabdus laumondii TT01)); test: crystal structure; remark: listed apart in the source

Substance | stoichiometry N [1] | stoichiometry N [2] | stoichiometry N [3]
cytosolic domain of Aeromonas hydrophila AscV (AscVC; residues 375–721) (domain or fragment) | 10 |  | 
cytosolic domain of Photorhabdus luminescens LscV (LscVC; residues 357–705) (domain or fragment) |  | 8 | 9
